Reference: article PMC4800418, “A two-component system regulates gene expression of the type IX secretion component proteins via an ECF sigma factor” (Scientific Reports, 2016)

Tests used:
[1] = molecular target: T1, rSigP (ECF sigma factor) (Porphyromonas gingivalis ATCC 33277) (UniProt B2RHE8); test: EMSA
T1 sequence: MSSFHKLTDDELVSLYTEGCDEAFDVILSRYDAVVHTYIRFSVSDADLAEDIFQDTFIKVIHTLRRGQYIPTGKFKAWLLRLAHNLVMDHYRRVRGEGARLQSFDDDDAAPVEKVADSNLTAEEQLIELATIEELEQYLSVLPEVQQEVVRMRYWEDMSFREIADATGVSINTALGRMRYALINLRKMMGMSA

[2] = molecular target: T2, recombinant PorX (rPorX) (Porphyromonas gingivalis ATCC 33277, UniProt B2RJJ3 1-518); test: SPR
T2 chain: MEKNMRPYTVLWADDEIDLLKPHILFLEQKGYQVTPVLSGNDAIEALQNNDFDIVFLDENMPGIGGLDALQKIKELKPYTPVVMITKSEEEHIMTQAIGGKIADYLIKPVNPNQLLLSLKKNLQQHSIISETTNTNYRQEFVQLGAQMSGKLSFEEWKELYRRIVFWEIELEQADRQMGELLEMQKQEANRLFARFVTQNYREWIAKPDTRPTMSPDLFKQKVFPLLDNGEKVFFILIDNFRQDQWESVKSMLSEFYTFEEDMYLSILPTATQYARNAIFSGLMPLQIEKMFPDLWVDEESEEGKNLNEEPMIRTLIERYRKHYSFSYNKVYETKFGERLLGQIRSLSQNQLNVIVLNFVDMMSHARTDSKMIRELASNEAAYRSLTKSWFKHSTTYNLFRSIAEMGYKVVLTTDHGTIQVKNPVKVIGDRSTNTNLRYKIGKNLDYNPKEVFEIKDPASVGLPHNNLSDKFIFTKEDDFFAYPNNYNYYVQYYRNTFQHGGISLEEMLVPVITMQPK

[3] = molecular target: T3, recombinant PorX (rPorX) (Porphyromonas gingivalis ATCC 33277, UniProt B2RJJ3 1-518); test: SPR; details: both partners purified
T3 construct: also called PGN_1019; source: E. coli BL21(DE3), purified (Ni-NTA agarose)
T3 sequence: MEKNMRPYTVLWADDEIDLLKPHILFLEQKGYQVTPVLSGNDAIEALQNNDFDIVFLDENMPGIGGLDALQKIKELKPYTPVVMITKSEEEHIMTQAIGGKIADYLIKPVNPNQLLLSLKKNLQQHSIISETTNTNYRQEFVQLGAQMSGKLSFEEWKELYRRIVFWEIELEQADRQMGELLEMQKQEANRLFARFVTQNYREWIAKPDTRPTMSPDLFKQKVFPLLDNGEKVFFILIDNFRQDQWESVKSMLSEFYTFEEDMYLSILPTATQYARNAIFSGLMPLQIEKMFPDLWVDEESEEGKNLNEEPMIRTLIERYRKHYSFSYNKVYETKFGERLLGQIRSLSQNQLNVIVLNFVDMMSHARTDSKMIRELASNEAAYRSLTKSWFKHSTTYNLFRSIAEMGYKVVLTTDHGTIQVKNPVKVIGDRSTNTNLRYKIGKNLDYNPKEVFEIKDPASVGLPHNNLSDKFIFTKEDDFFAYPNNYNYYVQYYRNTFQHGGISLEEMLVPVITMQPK

For “TTAGTGACTGAAATGCGATTGCCCTGTTACAAACGGACTTGATACAACATTTTCCCTACTTTTGCGTTAGTTTCCTATAGTAATAAACAACACTATGGTG (double strand) [ruvA promoter probe]”, the binding [1] was “binds”.

“GCAAAGAGGATTTTTTCTTCAACGAAGAAGAGTACTGATAATGTAATCTCCTTAAGCGAATATGCCCCGGATGTGCAATAATAGCACTCGGGGCTTCGTTTTACCACCGTGGCATCAGTC (double strand) [porP promoter probe]” was tested, and the binding [1] was “binds”.

With “ATTTCGTTCGTTTTGTTTTGTATTCTTATCGGGGTCTATGAATATTCAATATCGTAAACGGCAGAACTGCTTCGGCTATTGTGCTACCACGATCATTTTCTTGGCCATGGAGGCCGTCTG (double strand) [porV promoter probe]” the binding [1] was “binds”.

With “ACATTATTTATATATCTGCTTCGCTGCTCTCCCCGAATCCTGCGCTAAGGCAGTTTTCAGAGGAAACGAATGCTTTTATACTTTGCATCTCTATTCTTCGTATTGCTCAATGGGAAAGAA (double strand) [porK 5'-adjacent region probe]” the binding [1] was “no binding”.

“GGCTATACGCAAAGCAGTCAAGTCCATTCTCTCCGAGGATTCGTCCTTAGCTGTCGAAGATATTATCAAGCGAGCATTACGAATGTTATAACCTTTTCTC (double strand) [sov 5'-adjacent region probe]” was tested, and the binding [1] was “no binding”.

With “ATAATTATTGTTGTGAGGTAGGTTATGCAAATCTACGAACGAGATGTTCTAAATACCGATTCGCGCAAAAATACAATATCTTTGCTGCATAAGGCGTTGA (double strand) [porT promoter probe]” the binding [1] was “binds”.

B1: recombinant SigP (rSigP) (natural protein)
chain: MSSFHKLTDDELVSLYTEGCDEAFDVILSRYDAVVHTYIRFSVSDADLAEDIFQDTFIKVIHTLRRGQYIPTGKFKAWLLRLAHNLVMDHYRRVRGEGARLQSFDDDDAAPVEKVADSNLTAEEQLIELATIEELEQYLSVLPEVQQEVVRMRYWEDMSFREIADATGVSINTALGRMRYALINLRKMMGMSA
notes: source: E. coli BL21(DE3), purified (Ni-NTA agarose)
B1 showed a koff [2] of 0.000529 s⁻¹ and a Kd [3] of 78.3 nM.
